Values belong to the molecule of their own block, whether it stands above or below them.
Tests used:
[1] = target: trkC receptor in stable trkC expressing CHO cells; test: cell-based or functional assay
[2] = target: trkC receptor of embryonic rat trigeminal neurons (rat) (UniProt Q03351); test: cell-based or functional assay
[3] = target: T1, human trkC (human, UniProt Q16288 32-429, limits assumed); test: BIAcore analysis (SPR); format not stated
T1 construct: also called htrkC

Chain of trkC receptor of embryonic rat trigeminal neurons (rat) (Q03351 32-864): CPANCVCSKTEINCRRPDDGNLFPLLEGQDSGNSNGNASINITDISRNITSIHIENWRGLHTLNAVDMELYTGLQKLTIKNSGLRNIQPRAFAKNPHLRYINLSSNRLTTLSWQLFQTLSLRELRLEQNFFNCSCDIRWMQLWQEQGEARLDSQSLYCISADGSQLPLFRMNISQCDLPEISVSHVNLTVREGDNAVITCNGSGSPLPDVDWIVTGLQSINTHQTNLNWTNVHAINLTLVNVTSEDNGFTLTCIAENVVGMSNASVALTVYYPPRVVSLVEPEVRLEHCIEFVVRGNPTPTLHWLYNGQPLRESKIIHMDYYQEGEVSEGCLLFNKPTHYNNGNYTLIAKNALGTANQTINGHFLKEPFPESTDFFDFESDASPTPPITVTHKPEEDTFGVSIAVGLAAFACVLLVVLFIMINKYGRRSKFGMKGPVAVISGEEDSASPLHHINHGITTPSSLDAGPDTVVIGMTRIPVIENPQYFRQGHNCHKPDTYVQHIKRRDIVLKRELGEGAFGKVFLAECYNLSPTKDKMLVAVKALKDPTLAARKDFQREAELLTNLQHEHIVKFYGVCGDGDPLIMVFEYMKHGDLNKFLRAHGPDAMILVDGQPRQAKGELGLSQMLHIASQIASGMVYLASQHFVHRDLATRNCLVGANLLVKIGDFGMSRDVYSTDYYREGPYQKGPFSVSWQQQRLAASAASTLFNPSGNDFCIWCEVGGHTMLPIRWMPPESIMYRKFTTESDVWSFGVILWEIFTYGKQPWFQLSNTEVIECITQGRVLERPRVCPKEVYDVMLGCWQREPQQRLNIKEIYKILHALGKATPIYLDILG

trkC tyrosine phosphorylation, half maximum effective concentration (EC50) [1]: 1.09 nM
Molecule: NT3 (ligand)
survival of embryonic rat trigeminal neuron cultures, EC50 [2]: 0.00073 nM

Kd [3]: ~0.28 nM
B1: humanized anti-trkC agonist antibody A5 (antibody, V domains shown)
VH: QVQLVQSGAEVKKPGASVKVSCKASGYTFTSYRIHWVRQAPGQGLEWMGEIYPSNARTNYNEKFKSRVTMTRDTSTSTVYMELSSLRSEDTAVYYCARKYYYGNTRRSWYFDVWGQGTTVTVS
VL: DIQMTQSPSSLSASVGDRVTITCRASESIDNYGISFLAWYQQKPGKAPKLLIYAASNRGSGVPSRFSGSGSGTDFTFTISSLQPEDIATYYCQQSKTVPRTFGQGTKLEIKR
